From IntAct's records for PubMed 19959993

B1: Protein RED1 (Saccharomyces cerevisiae), P14291 (parent)
chain: MEGLKKKIFGVCLKNDLAQTRNETKGIHYGLMTLETSKQLQEFLHLLVIKREVIQNFELLFHIINVAVKITDSNLPSDDIWHFILKLRFSSEINIDEDSKVLNYLLETGIAMENPVSWKCLAVISSILSSVPQSKKIITNLIETEHAKKIGQLFDNIQDLQQGNFLVEILSNCFKKSASNSKKVEKIPQLWQSRSKNKFFFENEFYPFSSKNGSLQTCQFLCNNFMSTLSFTGILRQVSYSGSETLKNLRIFKKKDDENSYFIQCIYNKIYLWLDEKAPLEFERKKIRITKNLKNKIQIKLRQPFHECVRTTADKTALLFNKTKGFQLEFEDEKLGETFFHNVNNIPKISEVQNFLVLDYIEEEPENEGEEEEQIGRADEQKEDEEEESLDELSTPMVYPIKSSIPHNHNEKVQLVTPDRSVSIRSDEWDLKSNTEDEEGNVLADLKISSTKETKRQTDYVHIDSEDQSPVVSAQMRKMRRESTKTLEILRQEFKDKDVQNKEDQSEQIQNPFVNTSSLVVGKSCLVNPKEKPNIDQTVVGITELKSNSSIKKRDINILDTIFGQPPSKKQKQFHKKEKKKQQKKLTNFKPIIDVPSQDKRNLRSNAPTKPKSIKVSKLRTDKKVTGEKSSPETAAEKVDDQTVRSNDEQAMSRATKEKCFPDVNEGKEITKDDAKVSLESKKNNETFVDSSVVEKHTPPDKDCNNCNITDILESTTVIDLQSPHGLSAPGQNTFTNKLQEQIYSSINHFSNELVRKISIINQELNKKILKELSEKYQKLFSELQDNFQNDTNEMLKFMGEIKDMMNLPEDQLVHAIRTRKFDNNKR
B2: Synaptonemal complex protein ZIP1 (Saccharomyces cerevisiae), P31111 (parent)
chain: MSNFFRDSSMGFKPRPNIFAKLRVRDVDSDSSANTVVENSSNCLDVGSSIEGDDTFKKPHKTSTEQELITSMSLSQRNHGYSDDMEIGSPKKTTSTDQYNRILKNDVAAIENDTDEDFEITEVREVSEGVAKETKESHGDPNDSETTLKDSKMHEYTMTNGKAPLHTSINNSSTSSNDVLLEAFTNTQRICSNLKQELQKQQQDNAKLKVRLQSYASNSDKINEKVGKYKSCLETLQERIATLTSHKNNQETKLKDLRQNHQLYQRRISGFKTSIENLNKTINDLGKNKKEADAELMKKGKEIEYLKRELDDCSGQLSEEKIKNSSLIQEMGKNREEMIKSIENFFSEDKAHHLLQFNKFEERVHDLFEKKLQKHFDVAKDTLNVGLRNTTVELSSNTETMLKQQYEDIKENLEQKMSSSKDEMAKTINELSVTQKGLIMGVQEELLTSSGNIQTALVSEMNNTRQELLDDASQTAKNYASLENLVKAYKAEIVQSNEYEERIKHLESERSTLSSQKNQIISSLGTKEAQYEDLVKKLEAKNIEISQISGKEQSLTEKNENLSNELKKVQDQLEKLNNLNITTKSNYENKISSQNEIVKALVSENDTLKQRIQQLVEIKENEQKDHTTKLEAFQKNNEQLQKLNVEVVQLKAHELELEEQNRHLKNCLEKKETGVEESLSDVKTLKQQVIVLKSEKQDITAEKLELQDNLESLEEVTKNLQQKVQSQKRELEQKIKELEEIKNHKRNEPSKKGTQNFTKPSDSPKKNATTSNLFPNNSAAIHSPMKKCPKVDHISKSRINSSKETSKFNDEFDLSSSSNDDLELTNPSPIQIKPVRGKIKKGSNCMKPPISSRKKLLLVEDEDQSLKISKKRRRK
partner: B1 chain

Variants of: B1
Settings: with smt3_yeast SMT3, Q12306
smt3_yeast SMT3, Q12306, sequence (Q12306 whole entry): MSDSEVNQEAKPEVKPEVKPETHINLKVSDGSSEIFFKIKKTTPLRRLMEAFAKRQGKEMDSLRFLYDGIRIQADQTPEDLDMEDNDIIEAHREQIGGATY

Row | Variant | effect of a mutation on the interaction
1 | S715R | decreasing interaction
2 | T717R | decreasing interaction

Variants of: B1
Settings: with smt3_yeast SMT3, Q12306
Remark: another data set of the same source

Row | Variant | effect of a mutation on the interaction
3 | I758R | decreasing interaction

Variants of: B2
Settings: with red1_yeast RED1, P14291

Row | Variant | effect of a mutation on the interaction
4 | E862R | decreasing interaction
5 | D863R | decreasing interaction
6 | Q864R | decreasing interaction
